One test concerns the target T1, 4H895-AA.
T1 chain: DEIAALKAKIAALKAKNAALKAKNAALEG
Nature of the test: two-hybrid library CCmax.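 Also: natural log of median RNA to DNA barcode read ratio; higher means stronger binding.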 Conditions: mean of both orientations.

The target of another test is T2, 4H717-AA.
T2 chain: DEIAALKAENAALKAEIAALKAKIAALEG
Nature of the test: two-hybrid library CCmax.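 Also: natural log of median RNA to DNA barcode read ratio; higher means stronger binding.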 The settings on record: mean of both orientations.

The next test concerns the target T3, 4H4001-AA.
T3 chain: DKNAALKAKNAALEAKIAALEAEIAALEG
Nature of the test: two-hybrid library CCmax.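 Also: natural log of median RNA to DNA barcode read ratio; higher means stronger binding.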 The settings on record: mean of both orientations.

For the next test, the target named is T4, 4H953-AA.
T4 chain: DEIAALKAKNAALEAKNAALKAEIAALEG
Nature of the test: two-hybrid library CCmax.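 Also: natural log of median RNA to DNA barcode read ratio; higher means stronger binding.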 Conditions: mean of both orientations.

A further test deals with T5, 4H380-AA.
T5 chain: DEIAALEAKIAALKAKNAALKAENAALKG
Nature of the test: two-hybrid library CCmax.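 Also: natural log of median RNA to DNA barcode read ratio; higher means stronger binding.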 Conditions: mean of both orientations.

Another test concerns the target T6, 4H_APH.
T6 chain: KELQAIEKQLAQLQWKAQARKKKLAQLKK
Nature of the test: two-hybrid library CCmax.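 Also: natural log of median RNA to DNA barcode read ratio; higher means stronger binding.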 Conditions: mean of both orientations.

Another test addresses T7, 4H446-AA.
T7 chain: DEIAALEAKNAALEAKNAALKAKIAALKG
Nature of the test: two-hybrid library CCmax. Conditions: mean of both orientations.

The target in a further test is T8, 4H797-AA.
T8 chain: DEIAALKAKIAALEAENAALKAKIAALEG
Nature of the test: two-hybrid library CCmax. The settings on record: mean of both orientations.

Another test has as its target T9, 4H535-AA.
T9 chain: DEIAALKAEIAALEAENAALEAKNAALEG
Nature of the test: two-hybrid library CCmax. Conditions: mean of both orientations.

A further test addresses T10, 4H63-AA.
T10 chain: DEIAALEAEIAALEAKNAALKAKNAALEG
Nature of the test: two-hybrid library CCmax. Conditions: mean of both orientations.

In the next test the target is T11, 4H967-AA.
T11 chain: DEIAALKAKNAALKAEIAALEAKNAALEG
Nature of the test: two-hybrid library CCmax. Conditions: mean of both orientations.

Another test concerns the target T12, 4H3939-AA.
T12 chain: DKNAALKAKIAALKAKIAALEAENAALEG
Nature of the test: two-hybrid library CCmax. Conditions: mean of both orientations.

In another test the target is T13, 4H3782-AA.
T13 chain: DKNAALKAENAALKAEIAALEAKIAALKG
Nature of the test: two-hybrid library CCmax.

Another test has as its target 4H_GCN4. Nature of the test: two-hybrid library CCmax. Conditions: mean of both orientations.
The target of the next test is T14, 4H687-AA.
T14 chain: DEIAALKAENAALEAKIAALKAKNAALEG
Nature of the test: two-hybrid library CCmax. Conditions: mean of both orientations.

The next test addresses T15, 4H568-AA.
T15 chain: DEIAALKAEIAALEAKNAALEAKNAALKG
Nature of the test: two-hybrid library CCmax. The settings on record: mean of both orientations.

A further test deals with T16, 4H918-AA.
T16 chain: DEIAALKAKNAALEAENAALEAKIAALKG
Nature of the test: two-hybrid library CCmax. Conditions: mean of both orientations.

The target of another test is T17, 4H3969-AA.
T17 chain: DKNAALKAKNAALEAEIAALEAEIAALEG
Nature of the test: two-hybrid library CCmax. Conditions: mean of both orientations.

A further test addresses T18, 4H465-AA.
T18 chain: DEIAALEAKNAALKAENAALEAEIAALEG
Nature of the test: two-hybrid library CCmax. Conditions: mean of both orientations.

Another test has as its target T19, 4H486-AA.
T19 chain: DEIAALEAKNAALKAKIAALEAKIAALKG
Nature of the test: two-hybrid library CCmax. Conditions: mean of both orientations.

For a further test, the target named is T20, 4H464-AA.
T20 chain: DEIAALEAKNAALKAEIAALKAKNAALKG
Nature of the test: two-hybrid library CCmax. The settings on record: mean of both orientations.

In the next test the target is T21, 4H58-AA.
T21 chain: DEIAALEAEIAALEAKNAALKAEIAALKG
Nature of the test: two-hybrid library CCmax. The settings on record: mean of both orientations.

For the next test, the target named is GCN2_T. Nature of the test: two-hybrid library CCmax.
A further test has as its target T22, 4H883-AA.
T22 chain: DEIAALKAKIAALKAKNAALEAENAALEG
Nature of the test: two-hybrid library CCmax. Conditions: mean of both orientations.

Another test addresses T23, 4H3855-AA.
T23 chain: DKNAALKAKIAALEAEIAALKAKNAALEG
Nature of the test: two-hybrid library CCmax. Conditions: mean of both orientations.

Another test deals with T24, 4H483-AA.
T24 chain: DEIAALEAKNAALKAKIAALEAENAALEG
Nature of the test: two-hybrid library CCmax. Conditions: mean of both orientations.

In a further test the target is T25, 4H_BCR.
T25 chain: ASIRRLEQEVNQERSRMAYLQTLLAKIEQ
Nature of the test: two-hybrid library CCmax. Conditions: mean of both orientations.

For a further test, the target named is T26, 4H496-bN.
T26 chain: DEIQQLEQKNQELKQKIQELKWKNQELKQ
Nature of the test: two-hybrid library CCNG1.

Another test deals with T27, P9SHb.
T27 chain: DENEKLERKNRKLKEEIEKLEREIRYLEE
Nature of the test: two-hybrid library CCNG1.

A further test concerns the target T28, P6SHb.
T28 chain: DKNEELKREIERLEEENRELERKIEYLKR
Nature of the test: two-hybrid library CCNG1.

The target in a further test is T29, P7SHb.
T29 chain: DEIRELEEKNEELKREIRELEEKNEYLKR
Nature of the test: two-hybrid library CCNG1.

The next test addresses T30, P8SHb.
T30 chain: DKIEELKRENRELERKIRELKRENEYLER
Nature of the test: two-hybrid library CCNG1.

Chain of 4H_GCN4 (chain, as listed by the source): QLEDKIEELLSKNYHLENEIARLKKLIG

Take DKNAALKAENAALKAEIAALEAKIAALKG [4H3782-AA]: the interaction score with 4H895-AA was -1.54; with 4H717-AA it was 1.02; in the test with 4H4001-AA, -0.482; in the test with 4H953-AA, -1.68; in the test with 4H380-AA, -1.52; with 4H_APH, -2.26. Moreover, the interaction score with 4H446-AA was -1.07; in the test with 4H797-AA it was -1.45; with 4H535-AA, -1.44; with 4H63-AA it was -1.44; with 4H967-AA it was -1.19; with 4H3939-AA, -0.413. Further, the interaction score in the test with 4H3782-AA was 0.893; with 4H_GCN4 it was -2.54; with 4H687-AA it was -0.545; with 4H568-AA, -1.41; with 4H918-AA, -0.968; with 4H3969-AA, -0.912. Also, the interaction score with 4H465-AA was -1.7; in the test with 4H486-AA it was 1.41; with 4H464-AA, -0.448; in the test with 4H58-AA, -1.38; with GCN2_T, -1.87; with 4H883-AA, -1.27. For the same molecule, the interaction score in the test with 4H3855-AA was -0.587; with 4H483-AA, -0.902; with 4H_BCR, -1.19.

Take DEIQQLEQKNQELKQKIQELKWKNQELKQ [4H496-bN]: the interaction score with 4H496-bN is -0.0824.

As to DKNEELKREIERLEEENRELERKIEYLKR [P6SHb], the interaction score with P9SHb was 0.769; in the test with P6SHb it was 0.147; with P7SHb, 0.946; with P8SHb, 0.342.

These data come from paper PMC10397247.
